Reference: patent US20180074053A1 (priority 2016, published 2018)
Non-standard residues stand in square brackets, D forms with d. No end group written: not given here.

What was measured:
Assay in all cases: cell-based or functional assay
[1] = biological target: Motilin (GPCR target; motilin receptor) (UniProt O43193 1-412, limits assumed)
MC4 = MC4 (UniProt P32245 1-332)
NK1 = NK1 (UniProt P25103 1-407)
[2] = biological target: MAS-related G-protein-coupled receptor member D (MRGD) (human, UniProt Q8TDS7 1-321)
MCHR1 = MCHR1 (UniProt Q99705 1-353, limits assumed)
NPBW1 = biological target: T1, NPBW1 (UniProt P48145 1-328)
T1 sequence (looked up): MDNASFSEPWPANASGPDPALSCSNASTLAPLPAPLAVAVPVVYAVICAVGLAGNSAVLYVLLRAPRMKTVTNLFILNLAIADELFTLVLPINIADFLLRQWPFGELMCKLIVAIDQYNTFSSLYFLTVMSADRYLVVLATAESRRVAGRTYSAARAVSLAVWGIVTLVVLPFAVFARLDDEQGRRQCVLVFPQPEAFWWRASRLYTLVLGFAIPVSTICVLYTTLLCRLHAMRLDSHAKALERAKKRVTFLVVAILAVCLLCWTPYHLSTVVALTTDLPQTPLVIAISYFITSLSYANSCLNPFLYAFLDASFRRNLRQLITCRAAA

MRGX1 = MRGX1 (UniProt Q96LB2 1-322, limits assumed)
MRGX2 = biological target: T2, MRGX2 (UniProt Q96LB1 1-330, limits assumed)
T2 sequence (looked up): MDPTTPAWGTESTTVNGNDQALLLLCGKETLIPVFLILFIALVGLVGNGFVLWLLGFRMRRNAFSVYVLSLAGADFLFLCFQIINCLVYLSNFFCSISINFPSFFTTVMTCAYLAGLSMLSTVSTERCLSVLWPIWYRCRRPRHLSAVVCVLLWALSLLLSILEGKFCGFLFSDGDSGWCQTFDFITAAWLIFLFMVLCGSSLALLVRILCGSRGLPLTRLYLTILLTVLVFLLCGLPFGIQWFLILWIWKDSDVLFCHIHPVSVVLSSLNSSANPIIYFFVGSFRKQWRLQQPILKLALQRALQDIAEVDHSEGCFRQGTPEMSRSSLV

NOP = NOP (UniProt P41146 1-370)
NK2 = biological target: T3, NK2 (UniProt P21452 1-398)
T3 sequence (looked up): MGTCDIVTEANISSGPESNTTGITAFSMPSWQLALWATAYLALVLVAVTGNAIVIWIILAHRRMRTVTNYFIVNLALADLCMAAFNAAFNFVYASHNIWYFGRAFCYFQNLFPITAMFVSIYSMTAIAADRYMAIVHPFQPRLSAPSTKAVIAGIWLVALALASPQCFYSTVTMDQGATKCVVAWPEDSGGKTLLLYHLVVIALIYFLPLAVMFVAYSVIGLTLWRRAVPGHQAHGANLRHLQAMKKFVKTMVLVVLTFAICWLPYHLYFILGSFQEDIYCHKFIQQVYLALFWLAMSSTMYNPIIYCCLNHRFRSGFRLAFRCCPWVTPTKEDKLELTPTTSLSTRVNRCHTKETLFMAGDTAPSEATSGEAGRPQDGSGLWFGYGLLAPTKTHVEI

MC5 = MC5 (UniProt P33032 1-325)
NMUR2 = NMUR2 (UniProt Q9GZQ4 1-415, limits assumed)
Sequence of NMUR2 (Q9GZQ4 whole entry): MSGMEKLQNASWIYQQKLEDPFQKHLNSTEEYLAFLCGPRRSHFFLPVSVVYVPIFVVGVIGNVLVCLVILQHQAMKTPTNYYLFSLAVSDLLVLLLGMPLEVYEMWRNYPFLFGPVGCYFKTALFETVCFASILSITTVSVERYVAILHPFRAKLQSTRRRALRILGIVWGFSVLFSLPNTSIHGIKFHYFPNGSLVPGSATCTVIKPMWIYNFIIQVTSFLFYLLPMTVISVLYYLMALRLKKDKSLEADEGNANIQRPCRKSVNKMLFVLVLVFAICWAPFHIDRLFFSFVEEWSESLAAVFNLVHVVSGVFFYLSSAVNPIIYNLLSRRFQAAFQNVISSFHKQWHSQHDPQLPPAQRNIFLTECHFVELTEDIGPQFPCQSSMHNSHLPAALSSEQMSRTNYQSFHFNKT

Sequence of MAS-related G-protein-coupled receptor member D (MRGD) (Q8TDS7 whole entry): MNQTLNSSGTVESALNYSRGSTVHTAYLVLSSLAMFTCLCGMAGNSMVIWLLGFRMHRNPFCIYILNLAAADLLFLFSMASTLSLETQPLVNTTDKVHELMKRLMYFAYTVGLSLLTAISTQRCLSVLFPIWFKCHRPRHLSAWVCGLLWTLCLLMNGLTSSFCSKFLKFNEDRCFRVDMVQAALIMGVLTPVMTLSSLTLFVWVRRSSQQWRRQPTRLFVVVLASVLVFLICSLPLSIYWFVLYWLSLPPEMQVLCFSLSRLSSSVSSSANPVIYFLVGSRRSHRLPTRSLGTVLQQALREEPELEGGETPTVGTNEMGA
Sequence of MRGX1 (Q96LB2 whole entry): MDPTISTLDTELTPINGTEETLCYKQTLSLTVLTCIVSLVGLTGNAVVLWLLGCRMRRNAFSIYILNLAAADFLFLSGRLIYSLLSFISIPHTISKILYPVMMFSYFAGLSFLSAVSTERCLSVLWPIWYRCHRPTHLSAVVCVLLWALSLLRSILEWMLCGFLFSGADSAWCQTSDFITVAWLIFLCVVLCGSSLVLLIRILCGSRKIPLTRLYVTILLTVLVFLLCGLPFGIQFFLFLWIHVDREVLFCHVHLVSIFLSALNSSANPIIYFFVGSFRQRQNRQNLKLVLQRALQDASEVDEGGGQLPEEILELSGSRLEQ
Sequence of NOP (P41146 whole entry): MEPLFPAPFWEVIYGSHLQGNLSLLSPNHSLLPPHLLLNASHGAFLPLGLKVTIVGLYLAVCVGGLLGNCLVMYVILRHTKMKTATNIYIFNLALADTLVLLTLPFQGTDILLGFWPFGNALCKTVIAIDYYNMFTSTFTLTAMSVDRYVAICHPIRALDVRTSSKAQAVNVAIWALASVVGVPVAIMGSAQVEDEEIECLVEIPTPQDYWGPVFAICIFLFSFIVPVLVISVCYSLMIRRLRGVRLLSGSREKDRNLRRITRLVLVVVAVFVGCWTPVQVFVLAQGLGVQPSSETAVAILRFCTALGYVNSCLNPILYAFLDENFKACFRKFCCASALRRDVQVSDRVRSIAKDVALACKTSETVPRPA
Sequence of Motilin (GPCR target; motilin receptor) (O43193 whole entry): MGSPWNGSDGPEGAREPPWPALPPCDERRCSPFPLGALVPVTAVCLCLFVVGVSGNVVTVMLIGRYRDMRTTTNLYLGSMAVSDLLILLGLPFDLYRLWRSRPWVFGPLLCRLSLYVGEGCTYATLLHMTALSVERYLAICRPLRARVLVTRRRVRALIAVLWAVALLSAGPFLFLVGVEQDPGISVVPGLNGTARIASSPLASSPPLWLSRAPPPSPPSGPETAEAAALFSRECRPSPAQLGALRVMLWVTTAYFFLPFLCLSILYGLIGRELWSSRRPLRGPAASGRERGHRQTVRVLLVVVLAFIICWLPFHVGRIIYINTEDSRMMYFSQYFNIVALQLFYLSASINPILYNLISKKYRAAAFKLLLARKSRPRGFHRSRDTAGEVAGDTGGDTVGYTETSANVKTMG
Sequence of NK1 (P25103 whole entry): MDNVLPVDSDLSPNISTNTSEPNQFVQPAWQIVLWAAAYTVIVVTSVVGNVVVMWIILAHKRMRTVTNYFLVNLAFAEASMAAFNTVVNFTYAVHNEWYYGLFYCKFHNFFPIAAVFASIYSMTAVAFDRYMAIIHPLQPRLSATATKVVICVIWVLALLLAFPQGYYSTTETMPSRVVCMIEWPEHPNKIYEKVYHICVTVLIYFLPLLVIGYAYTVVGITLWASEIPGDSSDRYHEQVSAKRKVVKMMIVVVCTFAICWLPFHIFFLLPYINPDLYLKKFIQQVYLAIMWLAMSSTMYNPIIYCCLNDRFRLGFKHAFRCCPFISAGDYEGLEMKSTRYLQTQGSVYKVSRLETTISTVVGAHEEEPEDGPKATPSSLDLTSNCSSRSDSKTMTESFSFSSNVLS
Sequence of MC4 (P32245 whole entry): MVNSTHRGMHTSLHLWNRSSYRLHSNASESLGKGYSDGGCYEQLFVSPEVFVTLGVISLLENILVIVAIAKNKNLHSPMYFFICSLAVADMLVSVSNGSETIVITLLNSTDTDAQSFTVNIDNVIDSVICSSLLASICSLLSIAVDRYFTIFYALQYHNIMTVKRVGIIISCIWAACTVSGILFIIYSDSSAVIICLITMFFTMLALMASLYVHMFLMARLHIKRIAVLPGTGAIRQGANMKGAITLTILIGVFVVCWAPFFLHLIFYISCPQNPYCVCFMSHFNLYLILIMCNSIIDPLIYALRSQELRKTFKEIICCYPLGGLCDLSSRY
Sequence of MCHR1 (Q99705 whole entry): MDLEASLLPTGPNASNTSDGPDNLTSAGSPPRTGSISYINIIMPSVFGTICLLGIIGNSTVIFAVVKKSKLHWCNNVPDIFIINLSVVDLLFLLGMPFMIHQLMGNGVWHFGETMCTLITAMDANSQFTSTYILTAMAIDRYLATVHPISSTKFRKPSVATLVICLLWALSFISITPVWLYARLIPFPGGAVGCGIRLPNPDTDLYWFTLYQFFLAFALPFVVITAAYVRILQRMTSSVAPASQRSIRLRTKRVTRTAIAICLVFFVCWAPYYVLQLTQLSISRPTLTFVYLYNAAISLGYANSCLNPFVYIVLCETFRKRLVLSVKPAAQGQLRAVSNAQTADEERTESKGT
Sequence of MC5 (P33032 whole entry): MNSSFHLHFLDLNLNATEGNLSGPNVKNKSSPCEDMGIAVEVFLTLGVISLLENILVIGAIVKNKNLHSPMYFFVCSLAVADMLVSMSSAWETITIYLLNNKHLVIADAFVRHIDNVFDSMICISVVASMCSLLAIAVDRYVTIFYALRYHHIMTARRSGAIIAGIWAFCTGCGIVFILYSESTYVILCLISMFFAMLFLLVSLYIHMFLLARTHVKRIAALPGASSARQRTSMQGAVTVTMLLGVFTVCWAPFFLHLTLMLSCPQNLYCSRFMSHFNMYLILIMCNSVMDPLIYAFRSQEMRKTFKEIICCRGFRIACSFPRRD

B1: DT-110, tripeptide glycine-glycine-D-leucine (GGdL) (peptide)
peptide: Gly-Gly-[dL]
percent activation (calcium flux, GPCRProfiler), DT-110 @ 1.25 mM, Avg. [1]: -0.3%
percent activation (calcium flux, GPCRProfiler), DT-110 @ 1.25 mM, n1 [1]: -0.3%
percent activation (calcium flux, GPCRProfiler), DT-110 @ 1.25 mM, n2 [1]: -0.3%
percent activation (calcium flux, GPCRProfiler), DT-110 @ 12.5 mM, Avg. [1]: -0.4%
percent activation (calcium flux, GPCRProfiler), DT-110 @ 12.5 mM, n1 [1]: -0.3%
percent activation (calcium flux, GPCRProfiler), DT-110 @ 12.5 mM, n2 [1]: -0.5%
percent activation (calcium flux, GPCRProfiler), DT-110 @ 1.25 mM, Avg. (MC4): -0.5%
percent activation (calcium flux, GPCRProfiler), DT-110 @ 1.25 mM, n1 (MC4): 3%
percent activation (calcium flux, GPCRProfiler), DT-110 @ 1.25 mM, n2 (MC4): -4%
percent activation (calcium flux, GPCRProfiler), DT-110 @ 12.5 mM, Avg. (MC4): 3.4%
percent activation (calcium flux, GPCRProfiler), DT-110 @ 12.5 mM, n1 (MC4): -0.2%
percent activation (calcium flux, GPCRProfiler), DT-110 @ 12.5 mM, n2 (MC4): 7%
percent activation (calcium flux, GPCRProfiler), DT-110 @ 1.25 mM, Avg. (NK1): -0.9%
percent activation (calcium flux, GPCRProfiler), DT-110 @ 1.25 mM, n1 (NK1): -1%
percent activation (calcium flux, GPCRProfiler), DT-110 @ 1.25 mM, n2 (NK1): -0.9%
percent activation (calcium flux, GPCRProfiler), DT-110 @ 12.5 mM, Avg. (NK1): -1.1%
percent activation (calcium flux, GPCRProfiler), DT-110 @ 12.5 mM, n1 (NK1): -1%
percent activation (calcium flux, GPCRProfiler), DT-110 @ 12.5 mM, n2 (NK1): -1.1%
percent activation (calcium flux, GPCRProfiler), DT-110 @ 1.25 mM, Avg. [2]: 69.2%
percent activation (calcium flux, GPCRProfiler), DT-110 @ 1.25 mM, n1 [2]: 76.5%
percent activation (calcium flux, GPCRProfiler), DT-110 @ 1.25 mM, n2 [2]: 62%
percent activation (calcium flux, GPCRProfiler), DT-110 @ 12.5 mM, Avg. [2]: 64.5%
percent activation (calcium flux, GPCRProfiler), DT-110 @ 12.5 mM, n1 [2]: 60.7%
percent activation (calcium flux, GPCRProfiler), DT-110 @ 12.5 mM, n2 [2]: 68.3%
percent activation (calcium flux, GPCRProfiler), DT-110 @ 1.25 mM, Avg. (MCHR1): 0.4%
percent activation (calcium flux, GPCRProfiler), DT-110 @ 1.25 mM, n1 (MCHR1): 0.2%
percent activation (calcium flux, GPCRProfiler), DT-110 @ 1.25 mM, n2 (MCHR1): 0.7%
percent activation (calcium flux, GPCRProfiler), DT-110 @ 12.5 mM, Avg. (MCHR1): -0.1%
percent activation (calcium flux, GPCRProfiler), DT-110 @ 12.5 mM, n1 (MCHR1): -0.5%
percent activation (calcium flux, GPCRProfiler), DT-110 @ 12.5 mM, n2 (MCHR1): 0.3%
percent activation (calcium flux, GPCRProfiler), DT-110 @ 1.25 mM, Avg. (NPBW1): 0.2%
percent activation (calcium flux, GPCRProfiler), DT-110 @ 1.25 mM, n1 (NPBW1): 1.6%
percent activation (calcium flux, GPCRProfiler), DT-110 @ 1.25 mM, n2 (NPBW1): -1.1%
percent activation (calcium flux, GPCRProfiler), DT-110 @ 12.5 mM, Avg. (NPBW1): -0.9%
percent activation (calcium flux, GPCRProfiler), DT-110 @ 12.5 mM, n1 (NPBW1): -0.8%
percent activation (calcium flux, GPCRProfiler), DT-110 @ 12.5 mM, n2 (NPBW1): -0.9%
percent activation (calcium flux, GPCRProfiler), DT-110 @ 1.25 mM, Avg. (MRGX1): -1.9%
percent activation (calcium flux, GPCRProfiler), DT-110 @ 1.25 mM, n1 (MRGX1): -1.3%
percent activation (calcium flux, GPCRProfiler), DT-110 @ 1.25 mM, n2 (MRGX1): -2.5%
percent activation (calcium flux, GPCRProfiler), DT-110 @ 12.5 mM, Avg. (MRGX1): -6.6%
percent activation (calcium flux, GPCRProfiler), DT-110 @ 12.5 mM, n1 (MRGX1): -6.7%
percent activation (calcium flux, GPCRProfiler), DT-110 @ 12.5 mM, n2 (MRGX1): -6.6%
percent activation (calcium flux, GPCRProfiler), DT-110 @ 1.25 mM, Avg. (MRGX2): -0.2%
percent activation (calcium flux, GPCRProfiler), DT-110 @ 1.25 mM, n1 (MRGX2): 0%
percent activation (calcium flux, GPCRProfiler), DT-110 @ 1.25 mM, n2 (MRGX2): -0.4%
percent activation (calcium flux, GPCRProfiler), DT-110 @ 12.5 mM, Avg. (MRGX2): 0%
percent activation (calcium flux, GPCRProfiler), DT-110 @ 12.5 mM, n1 (MRGX2): 0.4%
percent activation (calcium flux, GPCRProfiler), DT-110 @ 12.5 mM, n2 (MRGX2): -0.4%
percent activation (calcium flux, GPCRProfiler), DT-110 @ 1.25 mM, Avg. (NOP): -0.1%
percent activation (calcium flux, GPCRProfiler), DT-110 @ 1.25 mM, n1 (NOP): -7.8%
percent activation (calcium flux, GPCRProfiler), DT-110 @ 1.25 mM, n2 (NOP): 7.6%
percent activation (calcium flux, GPCRProfiler), DT-110 @ 12.5 mM, Avg. (NOP): -2.3%
percent activation (calcium flux, GPCRProfiler), DT-110 @ 12.5 mM, n1 (NOP): 3.4%
percent activation (calcium flux, GPCRProfiler), DT-110 @ 12.5 mM, n2 (NOP): -8%
percent activation (calcium flux, GPCRProfiler), DT-110 @ 1.25 mM, Avg. (NK2): -9.5%
percent activation (calcium flux, GPCRProfiler), DT-110 @ 1.25 mM, n1 (NK2): -9.4%
percent activation (calcium flux, GPCRProfiler), DT-110 @ 1.25 mM, n2 (NK2): -9.6%
percent activation (calcium flux, GPCRProfiler), DT-110 @ 12.5 mM, Avg. (NK2): -9.6%
percent activation (calcium flux, GPCRProfiler), DT-110 @ 12.5 mM, n1 (NK2): -9.5%
percent activation (calcium flux, GPCRProfiler), DT-110 @ 12.5 mM, n2 (NK2): -9.7%
percent activation (calcium flux, GPCRProfiler), DT-110 @ 1.25 mM, Avg. (MC5): 0%
percent activation (calcium flux, GPCRProfiler), DT-110 @ 1.25 mM, n1 (MC5): 0.7%
percent activation (calcium flux, GPCRProfiler), DT-110 @ 1.25 mM, n2 (MC5): -0.8%
percent activation (calcium flux, GPCRProfiler), DT-110 @ 12.5 mM, Avg. (MC5): -0.3%
percent activation (calcium flux, GPCRProfiler), DT-110 @ 12.5 mM, n1 (MC5): -0.6%
percent activation (calcium flux, GPCRProfiler), DT-110 @ 12.5 mM, n2 (MC5): 0%
percent activation (calcium flux, GPCRProfiler), DT-110 @ 1.25 mM, Avg. (NMUR2): 2.4%
percent activation (calcium flux, GPCRProfiler), DT-110 @ 1.25 mM, n1 (NMUR2): 0.9%
percent activation (calcium flux, GPCRProfiler), DT-110 @ 1.25 mM, n2 (NMUR2): 3.9%
percent activation (calcium flux, GPCRProfiler), DT-110 @ 12.5 mM, Avg. (NMUR2): -0.9%
percent activation (calcium flux, GPCRProfiler), DT-110 @ 12.5 mM, n1 (NMUR2): 0.4%
percent activation (calcium flux, GPCRProfiler), DT-110 @ 12.5 mM, n2 (NMUR2): -2.2%
